This passage reports Kd, koff and kon results from CN109627340A (UNIV SHANGHAI JIAOTONG; JECHO LABORATORIES INC, dated 2019).

The target in this assay is T1, 人PRLR胞外结构域 (Sino Biological) (human, UniProt P16471 25-234).
T1 construct: Bought recombinant protein (Sino Biological); also called PRLR胞外区; PRLR ECD
T1 sequence (looked up): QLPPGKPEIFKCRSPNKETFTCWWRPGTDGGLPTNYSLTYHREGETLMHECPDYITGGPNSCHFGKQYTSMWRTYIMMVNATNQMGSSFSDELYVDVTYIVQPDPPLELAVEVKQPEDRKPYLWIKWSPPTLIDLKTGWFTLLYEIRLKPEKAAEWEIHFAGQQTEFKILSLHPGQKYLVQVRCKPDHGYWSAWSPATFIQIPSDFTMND
Nature of the assay: SPR, Biacore T200, antigen amine-coupled to CM5 chip.

B1: PRLR-DbsAb (CD3×PRLR双特异性抗体) (bispecific antibody, human IgG1, kappa)
heavy 1: not shown
light 1: DIQMTQSPSSLSASVGDRVTITCSASSSVSYMNWYQQTPGKAPKRWIYDTSKLASGVPSRFSGSGSGTDYTFTISSLQPEDIATYYCQQWSSNPFTFGQGTKLQITRTVAAPSVFIFPPSDEQLKSGTASVVCLLNNFYPREAKVQWKVDNALQSGNSQESVTEQDSKDSTYSLSSTLTLSKADYEKHKVYACEVTHQGLSSPVTKSFNRGEC
heavy 2: not shown
light 2: not shown
notes: also called PRLR-DsbAb; CD3和PRLR双特异性抗体
What is called Kd is the equilibrium constant for the complex coming apart. Low values mean tighter binding, high ones weaker binding. One may read the koff as a measure of how fast the partners let go of each other. Read a low koff as slow dissociation. Usually kon stands for the rate constant with which the complex forms. Lower therefore signals slower complex formation. With B1, the Kd is 2.31 nM, the koff was found to be 0.000679 s⁻¹ and the kon was found to be 294000 M⁻¹ s⁻¹.
